According to patent US7091027B1, “Transgenic amorpha-4,11-diene synthesis” (GenoClipp Biotechnology B.V., priority 1998, dated 2006):

System: T1, CC(C)=CCC/C(C)=C/CC/C(C)=C/CO[P@@](=O)(O)OP(=O)(O)O
T1 construct: This enzyme preparation was used for the measurement of enzyme characteristics such as molecular weight and Km; from tissue; host or cells: young leaves of greenhouse-grown A. annua
Assay: Enzyme kinetics of Mono-Q purified amorphadiene synthase in the [3H]-FPP assay
Assay type: biochemical, A. annua
Settings: other: 5- and 10-fold diluted Mono-Q eluted enzyme preparation, [3H]-FPP 0.25–100 μM, 30 min at 30° C.
Procedure: During enzyme isolation and preparation of the assays, all operations were carried out on ice or at 4° C. Ten grams of frozen young leaves from greenhouse-grown A. annua were ground in a pre-chilled mortar and pestle in 40 ml of pre-chilled buffer containing 25 mM MES (pH 5.5), 20% (v/v) glycerol, 25 mM sodium ascorbate, 25 mM NaHSO3, 10 mM MgCl2 and 5 mM DTT (buffer A) slurried with 1 g polyvinylpolypyrrolidone (PVPP) and a spatula tip of purified sea sand. Ten grams of polystyrene resin (Amberlite XAD-4, Serva) were added and the slurry was stirred carefully for 10 min and then filtered through cheesecloth. The filtrate was centrifuged at 20,000 g for 20 min (pellet discarded), and then at 100,000 g for 90 min. […]
The remainder of the supernatant was added to 12.5 g DEAE anion exchanger (Whatman DE-52), which had been rinsed several times with buffer A, and stirred carefully for 10 min. […] The molecular weight was determined using size-exclusion chromatography. 200 μl of the Mono-Q eluent was loaded on a Superdex 75 (H/R10/30, Pharmacia Biotech) and eluted in the same buffer as used for Mono-Q. Enzyme activities in 0.5 ml fractions were determined as described for Mono-Q, but using undiluted eluent. […] Enzyme-kinetics were determined using 5- and 10-fold diluted Mono-Q eluted enzyme preparation and [^3H]-FPP concentrations ranging from 0.25–100 μM. […]

Chain of amorphadiene synthase (Artemisia annua) (chain, as listed by the source): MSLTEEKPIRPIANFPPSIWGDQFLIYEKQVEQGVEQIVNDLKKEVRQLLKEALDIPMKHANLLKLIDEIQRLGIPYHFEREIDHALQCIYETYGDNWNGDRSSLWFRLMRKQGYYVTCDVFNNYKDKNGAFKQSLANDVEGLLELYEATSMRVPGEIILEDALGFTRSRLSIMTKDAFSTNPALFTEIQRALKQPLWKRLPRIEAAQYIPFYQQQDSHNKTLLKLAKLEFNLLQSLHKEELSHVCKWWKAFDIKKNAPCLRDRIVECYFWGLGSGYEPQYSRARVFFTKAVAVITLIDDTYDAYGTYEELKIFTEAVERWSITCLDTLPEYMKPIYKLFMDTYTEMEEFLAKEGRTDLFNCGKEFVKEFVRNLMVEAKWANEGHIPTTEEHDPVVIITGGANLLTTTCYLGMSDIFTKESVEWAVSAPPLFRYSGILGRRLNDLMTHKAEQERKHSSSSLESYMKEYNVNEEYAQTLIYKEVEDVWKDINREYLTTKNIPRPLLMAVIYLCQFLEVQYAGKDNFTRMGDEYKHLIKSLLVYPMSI

**Q.** How did the Km turn out when amorphadiene synthase (Artemisia annua) was run?
**A.** 0.6 µM
